Residue numbers refer to the chain shown, from its start.
Legend:
[1] = molecular target: T1, hiR2-FL-K573A-T7 (human, UniProt Q6PJF5 1-856); assay: FACS on MEF-DKO cells expressing the variant, 3 µg/ml antibody
T1 sequence: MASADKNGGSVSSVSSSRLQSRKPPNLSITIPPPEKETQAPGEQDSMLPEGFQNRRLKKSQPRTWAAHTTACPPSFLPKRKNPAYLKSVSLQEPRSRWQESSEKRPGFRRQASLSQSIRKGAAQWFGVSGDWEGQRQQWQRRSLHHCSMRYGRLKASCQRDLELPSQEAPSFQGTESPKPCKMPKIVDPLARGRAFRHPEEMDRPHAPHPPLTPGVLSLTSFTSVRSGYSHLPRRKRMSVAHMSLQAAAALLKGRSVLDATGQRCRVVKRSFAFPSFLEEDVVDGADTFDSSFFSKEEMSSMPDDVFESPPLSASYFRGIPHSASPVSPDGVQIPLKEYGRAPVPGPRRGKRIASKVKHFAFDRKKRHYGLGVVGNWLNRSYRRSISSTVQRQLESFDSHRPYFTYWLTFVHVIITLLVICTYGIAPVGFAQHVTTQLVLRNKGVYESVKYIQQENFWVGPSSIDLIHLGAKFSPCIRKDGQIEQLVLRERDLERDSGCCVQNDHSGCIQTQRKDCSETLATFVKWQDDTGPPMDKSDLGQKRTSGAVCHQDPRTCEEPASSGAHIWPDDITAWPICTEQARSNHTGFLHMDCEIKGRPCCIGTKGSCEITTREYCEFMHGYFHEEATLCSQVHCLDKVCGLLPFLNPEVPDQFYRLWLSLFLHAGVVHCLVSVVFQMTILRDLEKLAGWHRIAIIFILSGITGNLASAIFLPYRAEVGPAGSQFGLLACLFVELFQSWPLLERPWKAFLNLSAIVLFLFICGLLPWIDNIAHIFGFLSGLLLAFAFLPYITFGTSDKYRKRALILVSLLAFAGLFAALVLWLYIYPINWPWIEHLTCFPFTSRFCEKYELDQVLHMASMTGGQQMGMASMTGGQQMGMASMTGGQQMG
Procedure, shortened: (§1)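 Cells were stained with purified antibody at 3 μg/ml in FACS buffer for 1 hour on ice, with buffer-only controls. Bound antibody was detected with PE-conjugated goat anti-mouse IgG F(ab′)2 at 1:100, 1 hour on ice in the dark, followed by flow cytometry.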

[2] = molecular target: T2, hiR2-FL-H585A-T7 (human, UniProt Q6PJF5 1-856); assay: as above
T2 sequence: T1 sequence with A573K, H585A
Procedure, shortened: as §1

B1: antibody 3 (antibody, V domains shown)
VH: QVTLKESGPGILQPSQTLSLTCSFSGFSLTTFAMGIGWVRQPSGKGLEWLAHIWWDGEKYNNPVLKSRLTISKDTSKNQVFLRIANVDTPDTATYYCARISSIYYIIDNWGQGTSVTVSS
VL: DIVLTQSPATLSVTPGHSVSLSCRASQSISNNLHWYQKKSHESPRLLIKYVSQSISGIPSRFSGSGSGTDFTLSINSVETEDFGMYFCQQSYNWPLTFGAGTKLELK
notes: mouse IgG, kappa light chain; also called clone #3; purified antibody 3
loss of binding vs wild type [1]: ≥ 30% | loss of binding vs wild type [2]: ≥ 30%
